Experiment: yeast display, Sf9 membrane polyspecificity reagent, FACS + sequencing; frameworks hold sequencing errors
Procedure, shortened: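 Galactose-induced (36–48 hours) yeast carrying a synthetic nanobody display library were exposed to 10% biotinylated, detergent-solubilized Sf9 membrane reagent at 4 °C for 1 hour. FACS followed streptavidin microbead enrichment, using low and high (top ~1%) gates for expression (anti-HA) and reagent binding (streptavidin). Colony PCR, MiSeq 2 × 250 sequencing and CDR-length filtering followed. Labels for polyreactivity reflect the gate of origin.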

For “QVQLVESGGGLVQAGGSLRLSCAASGSTFSYNAMGWYRQAPGKERELVAAFSFISGSTYYADSVKGRFTISRDNAKNTVYLQMNSLKPEDTAVYFCAKRYRLRGRYDYWGQGTQVTVSS”, which “polyreactivity (PSR sort gate)” value is on record?
The value was “high polyreactivity”.

With “QVQLVESGGGLVQAGGSLRLSCAASGSTFSYNTMGWYRQAPGKERELVATIDFNGGSTYYADSVKGRFTISRDNAKNTVYLQMNSLKPEDTAVYYCNADRYPYWGYDYWGQGTQVTVSS” as the sequence, how does the “polyreactivity (PSR sort gate)” value read?
Its value is “low polyreactivity”.

For “QVQLVESGGGLVQAGGSLRLSCAASGSTFSYYALGWYRQAPGKEREFVAAISRSGGRTYYADSVKGRFTFSRDNAKNTVYLQMNSLKPEDTAVYYCATVYYYDFSRTHPWPGDYWGQGTQVTVSS”, which “polyreactivity (PSR sort gate)” value is on record?
Its value is “high polyreactivity”.

Which “polyreactivity (PSR sort gate)” value does the source give for “QVQLVESGGGLVQAGGSLRLSCAASGSTFSYYAMGGYRQEPGKERELVAAISRGTRTYYADSVKGSFSISRDNAKNTVYLLMNSLKAEDTAVYYCAADLWYTRYYYWGQGTQVTVSS” here?
Its value is “high polyreactivity”.

For “QVQLVESGGGLVQAGGSLRLSCAASGSTFSYYAMGWYIQAAGKERELVADITLNGGDTYYADSVKGRFTISRDNAKNTVYLQMNSLKPEDTAVYYCAKDSTADELTGFDYWGQGTQVTVSS”, which “polyreactivity (PSR sort gate)” value is on record?
Its value is “low polyreactivity”.

Which “polyreactivity (PSR sort gate)” value does the source give for “QVQLVESGGGLVQAGGSLRLSCAASGSTFSYYAMGWYRQAPGKEREFVAAISYSTTSTFYADSVKGRFTISRDNAKNTVYLQMNSLKPEDTAVYYCAARARYSPATYDYWGQGTQVTVSS” here?
Its value is “high polyreactivity”.

Which “polyreactivity (PSR sort gate)” value does the source give for “QVQLVESGGGLVQAGGSLRLSCAASGSTFSYYAMGWYRQAPGKEREFVASISWRGGSTYYADSVKGRFTISRDNAKNTVYLQMNRLKPEDTAVYYCAASSRSRWSGYRYDYWGQGTQVTVSS” here?
The value was “high polyreactivity”.

With “QVQLVESGGGLVQAGGSLRLSCAASGSTFSYYAMGWYRQAPGKERELVAAISGRGGSTYYADSVKGRFTISRDNAKNTVYLQMNSLKPEDTAVYYCAKGRLYTAYGLYSWGQGTQVTVSS” as the sequence, how does the “polyreactivity (PSR sort gate)” value read?
Its value is “high polyreactivity”.

Which “polyreactivity (PSR sort gate)” value does the source give for “QVQLVESGGGLVQAGGSLRLSCAASGSTFSYYAMGWYRQAPGKERELVAAISSRGGSTYYADSVKGRFTISRDNAKNTVYLQMNSQKPEDTAVYYCNADHQFRSSVSGDHDYWGQGTQVTVSS” here?
Its value is “high polyreactivity”.

With “QVQLVESGGGLVQAGGSLRLSCAASGSTFSYYAMGWYRQAPGKERELVAAISWSGGSTYYADSVKGRFTISRDNAKNTVYLQMNSLKPEDTAVYYCAIVTRKTYYVGNGDYWGQGTQVTVSS” as the sequence, how does the “polyreactivity (PSR sort gate)” value read?
The value was “high polyreactivity”.

With “QVQLVESGGGLVQAGGSLRLSCAASGSTFSYYAMGWYRQAPGKERELVAANTSGCRSKYADSVKGRFTISRDNAKNTVYLQINSLKPEDTAVYYCAKRIENFSGSLAGRWYDYWGQGTQVNVSS” as the sequence, how does the “polyreactivity (PSR sort gate)” value read?
The value was “high polyreactivity”.

For “QVQLVESGGGLVQAGGSLRLSCAASGSTFSYYAMGWYRQAPGKERELVADISSGGSTNYADSVKGRFTISRDNAKNTVYLQMNSLKPEDTAVYYCNRRYSYYDGFDYWGQGTQVTLSS”, which “polyreactivity (PSR sort gate)” value is on record?
Its value is “low polyreactivity”.

With “QVQLVESGGGLVQAGGSLRLSCAASGSTFSYYDMGWYREAPGKERELVAVITTSGVSTYYADSVKGRFTISRDNAKNTVYLQMNSLKPEDTAVYYCNADYGYDSVVEYDYWGQGTQVTVSS” as the sequence, how does the “polyreactivity (PSR sort gate)” value read?
Its value is “low polyreactivity”.

For “QVQLVESGGGLVQAGGSLRLSCAASGSTFSYYGMGWYRQAPGKERELVAAIDYSGDSTYYADSVKGRFTISRDNAKNTVYLQMNSMKPEDTALYYCNAAHSVRHYAIHLGYWGQGTQVTVSS”, which “polyreactivity (PSR sort gate)” value is on record?
The value was “low polyreactivity”.

Which “polyreactivity (PSR sort gate)” value does the source give for “QVQLVESGGGLVQAGGSLRLSCAASGSTFSYYTMGWYRQAPGKERELVAAISRTGGSTYYADSVKGRFTISRDNAKNTVYLQMNSLKPEDTAVYYCAAKGYVGRYDYWGQGTQVTVSS” here?
The value was “high polyreactivity”.

With “QVQLVESGGGLVQAGGSLRLSCAASGSTFTDNTMGWYRQAPGKERELVAAISGVGSTYYADSVKGRFTISRDNAKNTVYLQLNSLKPEVSAVYYCAKPYYDGRTHFVSWGQGTQVTVSS” as the sequence, how does the “polyreactivity (PSR sort gate)” value read?
Its value is “low polyreactivity”.

With “QVQLVESGGGLVQAGGSLRLSCAASGSTFTDYAMGWYRQAPGKERELVAAIDSGGITNYADSVKGRFTISRDNAKNTVYLQMNSLKPEDTAVYYCNADSSKFYSHGEYEYWGQGTQVTVSS” as the sequence, how does the “polyreactivity (PSR sort gate)” value read?
Its value is “low polyreactivity”.

Which “polyreactivity (PSR sort gate)” value does the source give for “QVQLVESGGGLVQAGGSLRLSCAASGSTFTDYAMGWYRQAPGKERELVAAITKSGGSTYYADSVKGRFTISRDNAKNTVYLQMNSLKPEDTAVYYCAAGNHRRPADYGSWGQGTQVTVSS” here?
The value was “low polyreactivity”.

For “QVQLVESGGGLVQAGGSLRLSCAASGSTFTDYDMGWYRQAPGKERELVAAISSGGSTYYADSVKGRFTISRDNAKNTVYLQMNSLKPEDTAVYYCAAVLGVWGGVGSEGDYWGQGTQVTVSS”, which “polyreactivity (PSR sort gate)” value is on record?
Its value is “low polyreactivity”.

With “QVQLVESGGGLVQAGGSLRLSCAASGSTFTENAMGWYRQAPGKERELVATISTSDGSTHYADSVKGRFTISRDNAKNTVYLQMNSLKPEDTAVSYCAARPDYYLWHGYYTRRHYYWGQGTQVTVSS” as the sequence, how does the “polyreactivity (PSR sort gate)” value read?
Its value is “low polyreactivity”.

With “QVQLVESGGGLVQAGGSLRLSCAASGSTFTFNAMGWYRQAPGKERELVAVISSGGSTYYADSVKGRFTISRDNAKNTVYLQMNSLKPEDTAVYYCNKVYGYFGQYYLRYNYWGQGTQVTVSS” as the sequence, how does the “polyreactivity (PSR sort gate)” value read?
Its value is “low polyreactivity”.

For “QVQLVESGGGLVQAGGSLRLSCAASGSTFTFNAMGWYRQATGKERELVAAITRSGTSTYYADSVKGRFTISRDNAKNTVYLQMNSLKPEDNAVYYCAAGRLWKTYEYYYWGQGTQVTVSS”, which “polyreactivity (PSR sort gate)” value is on record?
The value was “high polyreactivity”.

Which “polyreactivity (PSR sort gate)” value does the source give for “QVQLVESGGGLVQAGGSLRLSCAASGSTFTFYAMGWYRQAPGKQRELVATISSSGVSTSYADSVKGRFTISRDNAKNTVDLEMNSLKPEDTAVYYCNAGYRRRFIFDYWGQGTQVTVSS” here?
Its value is “low polyreactivity”.

For “QVQLVESGGGLVQAGGSLRLSCAASGSTFTGYTMGWYRQAPGKEREFVAAISSRGGSTYYADSVKGRFTISRDNAKNTVFLQMNSLKPEETAVYYCAAKVWARVDGRQFRMEYWGQGTQVTVSS”, which “polyreactivity (PSR sort gate)” value is on record?
Its value is “high polyreactivity”.

For “QVQLVESGGGLVQAGGSLRLSCAASGSTFTKYSMGWYRQAPGKERELVAAITGSGGRTYYADSEKGRFTISRDNAKNTVYLQMNSLKPEDTAVYYCAAEKAAGWYSGYDYWGQGTQVTVSS”, which “polyreactivity (PSR sort gate)” value is on record?
The value was “high polyreactivity”.

Which “polyreactivity (PSR sort gate)” value does the source give for “QVQLVESGGGLVQAGGSLRLSCAASGSTFTLNAMGWYRQAPGKERELVADISWSSGRTYYADSVKGRFTISRDTAKNTVYLQMNSLKPEDTAVYYCATEDFWNVKFYAYYPEFDYWGQGTQVTVSS” here?
The value was “low polyreactivity”.

With “QVQLVESGGGLVQAGGSLRLSCAASGSTFTLYAMGWSRPAPGKERELVATISWNGGRTYYADSVKGRFTISRDNAKNTVYLQMNSLKPEDTAVYYCAADTYDADYDYWGQGTQVTVSS” as the sequence, how does the “polyreactivity (PSR sort gate)” value read?
Its value is “high polyreactivity”.

With “QVQLVESGGGLVQAGGSLRLSCAASGSTFTLYAMGWYRQAPGKERELVASITASDGSTSYADSVKGRFTISRDNAKNTVYLQMNSLKPEDTAVYYCAARYRVRGISYYYWGQGTQVTVSS” as the sequence, how does the “polyreactivity (PSR sort gate)” value read?
The value was “low polyreactivity”.

Which “polyreactivity (PSR sort gate)” value does the source give for “QVQLVESGGGLVQAGGSLRLSCAASGSTFTLYAMGWYRQAPGKERELVATITGSGGSTNYADSVKGRFTISRDNAKNTVYLQMNSLKPEDTAVYYCAADYAVYSFTEFNYWGHGTQVTVSS” here?
Its value is “high polyreactivity”.

Which “polyreactivity (PSR sort gate)” value does the source give for “QVQLVESGGGLVQAGGSLRLSCAASGSTFTNYAMGWYRQAPGKERELVAAIDRRDGTTYYADSVKGRFTISRDNAKNTVYLQMNSLKPEDTAVYYCAADRDYSADVPGYYYWGQGTQVTVSS” here?
Its value is “low polyreactivity”.

With “QVQLVESGGGLVQAGGSLRLSCAASGSTFTPNAMGWYRQAPGKERELVAAINWSDSSTYYADSVKGRFTISRDNAKNTVYLQMNSLKPEETAVYYCAAAAQYGQLQVPVYYWGQGTQVTVSS” as the sequence, how does the “polyreactivity (PSR sort gate)” value read?
The value was “low polyreactivity”.

Which “polyreactivity (PSR sort gate)” value does the source give for “QVQLVESGGGLVQAGGSLRLSCAASGSTFTPYAMGWYRQAPGKERELVAAISWSDDSTYYADSVKGRFTISRDNAKNTVYLQMNSLKPEDTAVYYCAASAYVDYGVYTYIMDYWGQGTQVTVSS” here?
Its value is “high polyreactivity”.

With “QVQLVESGGGLVQAGGSLRLSCAASGSTFTPYAMGWYRQAPGKERELVAAITWRGGSTYYADSVKGRFTISRDNAKNTVYLQMNSLKPEDTAVYYCAAEDYLYFFYAYGYWGQGTQVTVSS” as the sequence, how does the “polyreactivity (PSR sort gate)” value read?
The value was “high polyreactivity”.

Which “polyreactivity (PSR sort gate)” value does the source give for “QVQLVESGGGLVQAGGSLRLSCAASGSTFTPYTMGWYRQAPGKERELVATITGSDGSTYYADSVKGRFTISRDNAKNTVYLQMNSLKPEDTAVYYCYADETRWTWDPFSYICDDYWGQGTQVTVSS” here?
The value was “low polyreactivity”.

With “QVQLVESGGGLVQAGGSLRLSCAASGSTFTPYVMGWYRQAPGKEREMVASITGGGGSTYADSVKGRFTISRDNAKNTVYVQMNSLKPEDTAVYYCAAELYRSNVYHYDYWGQGSQVTVSS” as the sequence, how does the “polyreactivity (PSR sort gate)” value read?
The value was “high polyreactivity”.

For “QVQLVESGGGLVQAGGSLRLSCAASGSTFTRNAMGWYRQAPGKERELVAVISSRGGRTYYADSVKGRFTISRDNAKNTVYLQMNSLKPEDTAVYYCAARYVIPLGNSYDYWGQGTQVTVSS”, which “polyreactivity (PSR sort gate)” value is on record?
The value was “high polyreactivity”.

With “QVQLVESGGGLVQAGGSLRLSCAASGSTFTRYAMGWYRQEPGKERELVAAITRRGVSTYYSDSVKGRFTISLDNAKNTVYLQMNSLKPEDTAVYYCNADVEHYSTLSEYWGQGTQVTVSS” as the sequence, how does the “polyreactivity (PSR sort gate)” value read?
The value was “high polyreactivity”.

With “QVQLVESGGGLVQAGGSLRLSCAASGSTFTSNTRWYRPAPGKERELVAAISSSGRTYYADSVKGRFTISRDNAKNTVYLQMNSLKPEDTAVYYCAARGREFGYWGQGTQVTVSS” as the sequence, how does the “polyreactivity (PSR sort gate)” value read?
Its value is “high polyreactivity”.

Which “polyreactivity (PSR sort gate)” value does the source give for “QVQLVESGGGLVQAGGSLRLSCAASGSTFTSYAMGWYRQAPGKERELVAAISRRGTSTYYADSVKGRFTISRDNAKNTVYLQMNSLKPEDTAVYYCAADGYYWEYYYWGQVTQVTVSS” here?
Its value is “high polyreactivity”.

With “QVQLVESGGGLVQAGGSLRLSCAASGSTFTTHVMGWYRQAPGKERELVAAISWSSGSTYYADSVKGRFTISRDNEKNTVYLQMNSLKPEDTAVYYCDARLVIFYPYSRYYFWGQGTQVTVSS” as the sequence, how does the “polyreactivity (PSR sort gate)” value read?
Its value is “high polyreactivity”.

With “QVQLVESGGGLVQAGGSLRLSCAASGSTFTTNAMGWYIQAPGKERELVATISGGSTNYADSVKGRFTISRDNAKNTVYLQMNSLKPEDTAVYYCNTDGEVTYDYWGQGTQVTVSS” as the sequence, how does the “polyreactivity (PSR sort gate)” value read?
The value was “low polyreactivity”.

From the nanobody polyreactivity screen of Harvey et al. (2022)
